The source of these data is patent US20220233706A1 (ANTIKOR BIOPHARMA, published 2022).

Values joined by “and” are separate entries in the source; they are usually repeats but may differ in a detail not shown here. Identical values can stand only once.

Usually Kd stands for a measure of binding affinity in units of concentration. The low end stands for tighter binding, the high end for weaker binding. By koff is commonly meant the first-order rate constant of dissociation. Usually kon stands for a measure of how fast the partners come together. Usually EC50 (read off the curve) stands for the concentration at which the effect is half-maximal. Higher therefore signals weaker potency.

Assay [1] concerns the target T1, HER2-Fc (UniProt P04626 23-652).
T1 construct: Coated at 10 µg/ml on ELISA plates; also called HER2 antigen; immobilised HER2 target antigen (ELISA); not shown: Fc part
Briefly: ELISA, plates coated with 10 µg/ml HER2-Fc, anti-myc IgG detection. In general terms: In an ELISA, binding on a coated surface is turned into a signal by an enzyme label.

Assay [2] concerns the target T2, HER2 immobilised on a Biacore chip (UniProt P04626 23-652, limits assumed).
T2 construct: also called immobilised HER2 target antigen (Biacore SPR); HER2 chip
Briefly: Biacore SPR, HER2 amine-coupled to the chip. A general note: Surface plasmon resonance follows binding to a sensor surface in real time, without labels.

In assay [3] the target is T2, HER2 immobilised on a Biacore chip. Briefly: Biacore SPR, HER2 amine-coupled to the chip; Acetate conjugate, DAR 16. The procedure: (§1) A standard amine-coupling method was used to prepare all Biacore surfaces (CM5 or CM3), as follows. Flow cells were activated individually by injecting a freshly mixed solution of 0.2M EDC in 0.05 M NHS at 30 μl/min. […] Excess NHS ester was deactivated using a 1 M ethanolamine solution. […] The dissociation time was extended to 3600 s for the highest concentration. Surfaces were regenerated with 45 s injection of MgCl₂ […].

For assay [4] the target is unchanged. Briefly: Biacore SPR, HER2 amine-coupled to the chip; MMAF-C5 conjugate, DAR 5.2. The procedure: as §1
The target is the same in assay [5]. Briefly: Biacore SPR, HER2 amine-coupled to the chip; unmodified scFv (TCT1067). On the procedure:
as §1

For assay [6] the target is unchanged. Briefly: Biacore SPR, HER2 amine-coupled to the chip; MMAF-C5 conjugate, DAR 7.1. On the procedure:
as §1

The target in assay [7] is T1, HER2-Fc. In words: ELISA on plates coated with 10 µg/ml HER2-Fc, detection anti-T7 peroxidase conjugate, absorption at 450 nm. The procedure:
(§2) All proteins were detected using the C-terminal T7 Tag which was not expected to be chemically modified (no lysines present). 96-well Immunosorb ELISA plates were coated with 10 μg/ml HER2-Fc in PBS, followed by the test samples, anti-T7 peroxidase conjugate. Extensive PBS washes were in between each layer and detection was with BM-Blue substrate.

In assay [8] the target is T1, HER2-Fc. In words: ELISA, plates coated with 10 µg/ml HER2-Fc, anti-T7 peroxidase detection. The procedure:
as §2

Regarding “C6.5 scFv-SPDP conjugate, linker to antibody ratio 5.4, reduced with TCEP”, the Kd in assay [1] worked out at 24.9 nM.
Same read-out and setting: as for “C6.5 scFv, non-SPDP modified but reduced control”, the figure is 42 nM.

B1: scFv (TCT1067)-Acetate DAR 16 (scFv)
scFv: SGSGGSGQVQLVQSGAEVKKPGESLKISCKGSGYSFTSYWIAWVRQMPGKGLEYMGLIYPGDSDTKYSPSFQGQVTISVDKSVSTAYLQWSSLKPSDSAVYFCARHDVGYCTDRTCAAWPEWLGVWGQGTLVTVSSGGGGSGGGGSGGGGSQSVLTQPPSVSAAPGQKVTISCSGSSSNIGNNYVSWYQQLPGTAPKLLIYGHTNRPAGVPDRFSGSKSGTSASLAISGFRSEDEADYYCASWDYTLSGWVFGGGTKLTVLMASMTGGQQMG
modifications: acetyl groups (from Acetate-NHS) on lysines, N-terminal amine and further residues, 16 additions by LC-MS
notes: also called TCT1067-acetate conjugate 2
In assay [2], B1 gave a koff of 7.64e-05 s⁻¹ and an on-rate (kon) of 3.63e+06 M⁻¹ s⁻¹. Also, the Kd in assay [3] stood at 0.021 nM.

B2: scFv (TCT1067)-P5-C5 DAR 10.9 (scFv)
scFv: SGSGGSGQVQLVQSGAEVKKPGESLKISCKGSGYSFTSYWIAWVRQMPGKGLEYMGLIYPGDSDTKYSPSFQGQVTISVDKSVSTAYLQWSSLKPSDSAVYFCARHDVGYCTDRTCAAWPEWLGVWGQGTLVTVSSGGGGSGGGGSGGGGSQSVLTQPPSVSAAPGQKVTISCSGSSSNIGNNYVSWYQQLPGTAPKLLIYGHTNRPAGVPDRFSGSKSGTSASLAISGFRSEDEADYYCASWDYTLSGWVFGGGTKLTVLMASMTGGQQMG
modifications: P5-C5 on lysine residues; DAR 10.4 by AAA, 11.7 by MS, overall average 10.9
notes: also called TCT1067-P5C5 ADC 1; compound 71
In assay [2], B2 displayed a Kd of 0.302 nM, a koff of 7.13e-05 s⁻¹ and a kon of 236000 M⁻¹ s⁻¹.

B3: scFv (TCT1067)-MMAF-C5 ADC 1 (DAR 5.2) (scFv)
scFv: SGSGGSGQVQLVQSGAEVKKPGESLKISCKGSGYSFTSYWIAWVRQMPGKGLEYMGLIYPGDSDTKYSPSFQGQVTISVDKSVSTAYLQWSSLKPSDSAVYFCARHDVGYCTDRTCAAWPEWLGVWGQGTLVTVSSGGGGSGGGGSGGGGSQSVLTQPPSVSAAPGQKVTISCSGSSSNIGNNYVSWYQQLPGTAPKLLIYGHTNRPAGVPDRFSGSKSGTSASLAISGFRSEDEADYYCASWDYTLSGWVFGGGTKLTVLMASMTGGQQMG
modifications: MMAF-C5 on lysine residues; DAR 6.4 by AAA, 4.0 by MS, average 5.2
notes: also called scFv (TCT1067)-MMAF-C5 DAR 5.2; scFv (TCT1067)-MMAF-C5, DAR 6.4
On to B3, for which, in assay [4], the Kd worked out at 0.0196 nM, the koff worked out at 3.4e-05 s⁻¹ and the kon came out at 1.8e+06 M⁻¹ s⁻¹.

B4: scFv (TCT1067) (scFv)
scFv: SGSGGSGQVQLVQSGAEVKKPGESLKISCKGSGYSFTSYWIAWVRQMPGKGLEYMGLIYPGDSDTKYSPSFQGQVTISVDKSVSTAYLQWSSLKPSDSAVYFCARHDVGYCTDRTCAAWPEWLGVWGQGTLVTVSSGGGGSGGGGSGGGGSQSVLTQPPSVSAAPGQKVTISCSGSSSNIGNNYVSWYQQLPGTAPKLLIYGHTNRPAGVPDRFSGSKSGTSASLAISGFRSEDEADYYCASWDYTLSGWVFGGGTKLTVLMASMTGGQQMG
notes: also called unmodified scFv (TCT1067)
Turning to B4, the Kd in assay [5] turned out to be 0.0095 nM. In assay [2], the koff was 3.7e-05 s⁻¹ and 3.69e-05 s⁻¹; the kon was 3.9e+06 M⁻¹ s⁻¹ and 3.88e+06 M⁻¹ s⁻¹.

B5: scFv (TCT1067)-MMAF-C5 ADC 2 (DAR 7.1) (scFv)
scFv: SGSGGSGQVQLVQSGAEVKKPGESLKISCKGSGYSFTSYWIAWVRQMPGKGLEYMGLIYPGDSDTKYSPSFQGQVTISVDKSVSTAYLQWSSLKPSDSAVYFCARHDVGYCTDRTCAAWPEWLGVWGQGTLVTVSSGGGGSGGGGSGGGGSQSVLTQPPSVSAAPGQKVTISCSGSSSNIGNNYVSWYQQLPGTAPKLLIYGHTNRPAGVPDRFSGSKSGTSASLAISGFRSEDEADYYCASWDYTLSGWVFGGGTKLTVLMASMTGGQQMG
modifications: MMAF-C5 on lysine residues; DAR 8.6 by AAA, 5.5 by MS, average 7.1
notes: also called scFv (TCT1067)-MMAF DAR 8.7
With B5, in assay [6], the Kd amounted to 0.0038 nM, the koff came out at 1.7e-05 s⁻¹ and the on-rate constant (kon) turned out to be 4.6e+06 M⁻¹ s⁻¹.

B6: scFv (TCT)-Acetate DAR 15 (scFv)
scFv: SGSGGSGQVQLVQSGAEVKKPGESLKISCKGSGYSFTSYWIAWVRQMPGKGLEYMGLIYPGDSDTKYSPSFQGQVTISVDKSVSTAYLQWSSLKPSDSAVYFCARHDVGYCSSSNCAAWPEYFQHWGQGTLVTVSSGGGGSGGGGSGGGGSQSVLTQPPSVSAAPGQKVTISCSGSSSNIGNNYVSWYQQLPGTAPKLLIYGHTNRPAGVPDRFSGSKSGTSASLAISGFRSEDEADYYCAAWDDSLSGWVFGGGTKLTVLMASMTGGQQMG
modifications: acetyl groups (from Acetate-NHS) on lysines, N-terminal amine and further residues, 15 additions by LC-MS
notes: also called TCT-acetate conjugate 1
Consider B6, for which, in assay [2], the Kd turned out to be 2.9 nM, the koff is 0.0171 s⁻¹ and the on-rate (kon) was 5.93e+06 M⁻¹ s⁻¹.

B7: scFv (TCT)-MMAF-C5 ADC 2 (DAR 6.8) (scFv)
scFv: SGSGGSGQVQLVQSGAEVKKPGESLKISCKGSGYSFTSYWIAWVRQMPGKGLEYMGLIYPGDSDTKYSPSFQGQVTISVDKSVSTAYLQWSSLKPSDSAVYFCARHDVGYCSSSNCAAWPEYFQHWGQGTLVTVSSGGGGSGGGGSGGGGSQSVLTQPPSVSAAPGQKVTISCSGSSSNIGNNYVSWYQQLPGTAPKLLIYGHTNRPAGVPDRFSGSKSGTSASLAISGFRSEDEADYYCAAWDDSLSGWVFGGGTKLTVLMASMTGGQQMG
modifications: MMAF-C5 on lysine residues; DAR 8.0 by AAA, 5.5 by MS, average 6.8
notes: also called scFv (TCT)-MMAF-C5 DAR 6.8; scFv (TCT)-MMAF DAR 8
For B7, in assay [2], the Kd turned out to be 3.6 nM, the off-rate (koff) came to 0.0042 s⁻¹ and the kon amounted to 1.2e+06 M⁻¹ s⁻¹.

B8: scFv (TCT)-MMAF-C5 ADC 1 (DAR 5.6) (scFv)
scFv: SGSGGSGQVQLVQSGAEVKKPGESLKISCKGSGYSFTSYWIAWVRQMPGKGLEYMGLIYPGDSDTKYSPSFQGQVTISVDKSVSTAYLQWSSLKPSDSAVYFCARHDVGYCSSSNCAAWPEYFQHWGQGTLVTVSSGGGGSGGGGSGGGGSQSVLTQPPSVSAAPGQKVTISCSGSSSNIGNNYVSWYQQLPGTAPKLLIYGHTNRPAGVPDRFSGSKSGTSASLAISGFRSEDEADYYCAAWDDSLSGWVFGGGTKLTVLMASMTGGQQMG
modifications: MMAF-C5 (from MMAF-C5-NHS, compound 78) on lysine residues; DAR 6.64 by AAA, 4.5 by MS, average 5.6
notes: also called scFv (TCT)-MMAF-C5 1 DAR 5.6; scFv (TCT)-MMAF-C5, DAR 6.6
For B8, in assay [2], binding was characterised by a dissociation constant (Kd) of 5.4 nM, the koff came to 0.0042 s⁻¹ and the kon turned out to be 770000 M⁻¹ s⁻¹.

B9: scFv (TCT)-Cemadotin ADC sample 3 (DAR 11) (scFv)
scFv: SGSGGSGQVQLVQSGAEVKKPGESLKISCKGSGYSFTSYWIAWVRQMPGKGLEYMGLIYPGDSDTKYSPSFQGQVTISVDKSVSTAYLQWSSLKPSDSAVYFCARHDVGYCSSSNCAAWPEYFQHWGQGTLVTVSSGGGGSGGGGSGGGGSQSVLTQPPSVSAAPGQKVTISCSGSSSNIGNNYVSWYQQLPGTAPKLLIYGHTNRPAGVPDRFSGSKSGTSASLAISGFRSEDEADYYCAAWDDSLSGWVFGGGTKLTVLMASMTGGQQMG
modifications: Cemadotin on all but one of the surface lysine residues (11/12), DAR 10.96 by AAA
notes: also called TCT-Cem ADC3; TCT-Cemadotin conjugate 3
As for B9, the “EC50 (read off the curve)” value in assay [7] is around 40 nM. In assay [8], this molecule displayed an equilibrium dissociation constant (Kd) of 27.5 nM.

B10: scFv (TCT)-Cemadotin ADC sample 1 (DAR 3.9) (scFv)
scFv: SGSGGSGQVQLVQSGAEVKKPGESLKISCKGSGYSFTSYWIAWVRQMPGKGLEYMGLIYPGDSDTKYSPSFQGQVTISVDKSVSTAYLQWSSLKPSDSAVYFCARHDVGYCSSSNCAAWPEYFQHWGQGTLVTVSSGGGGSGGGGSGGGGSQSVLTQPPSVSAAPGQKVTISCSGSSSNIGNNYVSWYQQLPGTAPKLLIYGHTNRPAGVPDRFSGSKSGTSASLAISGFRSEDEADYYCAAWDDSLSGWVFGGGTKLTVLMASMTGGQQMG
modifications: Cemadotin (from Cemadotin-NHS, compound 2) on lysine residues, average DAR 3.9 by AAA
notes: also called TCT-Cem ADC1; TCT-Cemadotin conjugate 1
Consider B10, for which, in assay [7], the “EC50 (read off the curve)” value is around 4 nM. Binding in assay [8] was put at a Kd of 3.3 nM.

B11: scFv (TCT)-Cemadotin ADC sample 2 (DAR 8.2) (scFv)
scFv: SGSGGSGQVQLVQSGAEVKKPGESLKISCKGSGYSFTSYWIAWVRQMPGKGLEYMGLIYPGDSDTKYSPSFQGQVTISVDKSVSTAYLQWSSLKPSDSAVYFCARHDVGYCSSSNCAAWPEYFQHWGQGTLVTVSSGGGGSGGGGSGGGGSQSVLTQPPSVSAAPGQKVTISCSGSSSNIGNNYVSWYQQLPGTAPKLLIYGHTNRPAGVPDRFSGSKSGTSASLAISGFRSEDEADYYCAAWDDSLSGWVFGGGTKLTVLMASMTGGQQMG
modifications: Cemadotin on lysine residues, average DAR 8.2 by AAA
notes: also called TCT-Cem ADC2; TCT-Cemadotin conjugate 2
On to B11, for which, in assay [7], the “EC50 (read off the curve)” value was around 20 nM. Also, the affinity in assay [8], expressed as Kd, was 15.5 nM.
